According to US9513240B2, “MEMS-based calorimeter, fabrication, and use thereof” (The Trustees of Columbia University in the City of New York, priority 2011, dated 2016):

Legend:
[1] = typical range; cited from earlier work
[2] = MEMS AC-DSC measurement of lysozyme unfolding; assay type: physicochemical
Excerpt: The DSC measurement system was configured similarly to that of Example 2. The microdevice was also placed in a thermal enclosure built in-house. The temperature of the sample stage in the thermal enclosure was controlled in closed-loop via a proportional-integral-derivative (PID) algorithm implemented by a commercial temperature controller (Lakeshore 331). The on-chip microheaters driven by a DC power supply (Agilent E3631A) were used to generate a constant differential power input, while for modulated heating, a square-wave AC voltage generated by a waveform generator (Agilent 33220A) was applied (FIG. 13). […] During device calibration, the thermopile output voltage was measured by a nanovoltmeter (Agilent 34420A), while during AC-DSC measurement, the amplitude and phase of thermopile voltage were measured by a lock-in amplifier (Stanford Research Systems SR830) referenced by the same AC modulation square wave from the waveform generator. […]
The methods for calibrating the DC performance of the MEMS device were substantially the same as described in Example 2. The baseline in device output, i.e., the thermopile voltage with no differential power input during temperature scanning, was measured with both chambers filled with buffer solutions. […]

[3] = MEMS DSC measurement of lysozyme unfolding; assay type: physicochemical; conditions: lysozyme 1 to 20 mg/mL in 0.1 M Glycine-HCl buffer (pH 2.5); scan 25-75° C. at 5° C./min
Description: DSC measurements of biomolecules were performed using the calibrated microdevice, whose sample chamber and reference chamber were respectively filled with biological sample and buffer solutions, scanned in a range of temperature of interest. The temperature sensors were used to monitor the temperatures of calorimetric chambers while the device output was obtained in real time to compute the biomolecular thermal power. Before DSC measurements, the baseline in device output, i.e., the thermopile output voltage in the absence of a differential power input, during temperature scanning was measured with both calorimetric chambers filled with buffer solutions. Biological sample and buffer solutions were degassed with a vacuum chamber built in-house, metered with micropipettes, and introduced by a syringe pump (New Era Pump Systems, NE 1000).
The calibrated MEMS DSC device was employed to characterize protein unfolding, a common type of biomolecular conformational transition.
The thermopile output voltage as a function of temperature, corrected by baseline subtraction, was measured at varying protein concentrations ranging from 1 to 20 mg/mL (FIG. 10). […]

In the case of lysozyme, the “Tm, published data” value [1] is given as 55-58.9 °C, the “ΔH of unfolding, published data” value [1] is given as 377 to 439 kJ/mol and the “apparent melting temperature (Tm)” value ([2]; 10 and 20 mg/mL in 0.1 M Glycine-HCl buffer, pH 2.5, 25 to 82° C. at 5° C./min, modulation 1, 5 or 10 Hz) is given as 55-58 °C. For the same substance, the “difference in the specific heat capacity (Δc) between native and unfolded states” value ([2]; regardless of the modulation frequency) was 3.0 kJ/mol·K, the “melting temperature Tm” value [3] was “approximately 55 °C” and the “total change of molar enthalpy (ΔH) of unfolding” value [3] was “approximately 450 kJ/mol”.
